Target: T1, Streptococcus pyogenesのStreptolysin O(SLO) (Streptococcus pyogenes, UniProt P0C0I3 34-571)
T1 sequence: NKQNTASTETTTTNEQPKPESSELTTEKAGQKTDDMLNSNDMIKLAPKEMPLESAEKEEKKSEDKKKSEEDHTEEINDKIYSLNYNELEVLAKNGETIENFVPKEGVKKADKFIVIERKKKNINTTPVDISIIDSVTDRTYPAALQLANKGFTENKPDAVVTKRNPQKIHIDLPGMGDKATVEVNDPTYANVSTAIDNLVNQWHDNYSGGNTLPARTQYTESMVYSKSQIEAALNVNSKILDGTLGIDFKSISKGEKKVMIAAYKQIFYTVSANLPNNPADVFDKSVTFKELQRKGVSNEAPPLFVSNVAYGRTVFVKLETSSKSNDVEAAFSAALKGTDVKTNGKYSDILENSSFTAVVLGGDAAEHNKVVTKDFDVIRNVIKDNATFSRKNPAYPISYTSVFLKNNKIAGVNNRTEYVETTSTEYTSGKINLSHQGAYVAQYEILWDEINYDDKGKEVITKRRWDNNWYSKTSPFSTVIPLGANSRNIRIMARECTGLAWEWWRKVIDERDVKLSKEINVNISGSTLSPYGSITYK
Test: ELISA, plate coated with 1 μg/mL SLO, anti-mouse IgG-HRP detection

| Binder | binding result |
| --- | --- |
| 抗体HS3 (antibody, V domains shown) VH: EVQLQESGPDLVKPSQSLSLICTVTGYSITSGYNWHWIRQFPGNKLEWMAYIDYTGSTHYNPSLKSRISITRDTSKNHFFLQLNSVTTEDTATYYCARDYGNYEWSFDVWGAGTTVTVSS VL: DIQMNQSPSSLSASLGDTITITCHASQNINVWLSWYQQKPGNIPKLLIYKASNLHTGVPSRFSGSGSGTGFTLTISSLQPEDIATYYCQQGQSYPLTFGAGTKL | no binding |
| 抗体HS2 (antibody, V domains shown) V domain 1: VQLQESGPELVKPGASVKISCKASGYAFSSSWMNWVRQRPGQGLEWIGRIYPGDGDTNYNGKFKGKATLTADKSSNAAYMHLSSLTSVDSAVYFCARRNYGSGFLYYFDYWGQGTTLTV V domain 2: QIVLSQFPAILSASPGEKVTMTCRASSSVSYMHWYQQKPGSSPKLWIYATSDLASGVPARFSGSGSGTSYSLTISRVEAEDAATYYCQQWSSNPPTFGGGTKL | no binding |

From patent JP2020117470A (dated 2020)
